Source: publication PMC3236213, “A Novel N-Acetylglutamate Synthase Architecture Revealed by the Crystal Structure of the Bifunctional Enzyme from Maricaulis maris” (PLoS ONE, 2011)
Values belong to the compound of their own block, whether it stands above or below them.

Key:
[1] = target: T1, mmNAGS/K (Maricaulis maris, UniProt Q0ASS9); assay: NAGS assay, NAG quantified by LC-MS; assay type: biochemical; conditions: allosteric inhibitor of NAGS activity, not of NAGK activity; 2.5 mM AcCoA, 10 mM L-glutamate, 50 mM Tris-HCl pH 8.5; 293 K in Methods, 310 K in Figure 1 legend
T1 construct: gene Mmar10_0365; full length (AAK domain 1-290, linker Gly291, NAT domain 292-441); E. coli Rosetta 2; homotetramer
T1 sequence (Q0ASS9 1-441): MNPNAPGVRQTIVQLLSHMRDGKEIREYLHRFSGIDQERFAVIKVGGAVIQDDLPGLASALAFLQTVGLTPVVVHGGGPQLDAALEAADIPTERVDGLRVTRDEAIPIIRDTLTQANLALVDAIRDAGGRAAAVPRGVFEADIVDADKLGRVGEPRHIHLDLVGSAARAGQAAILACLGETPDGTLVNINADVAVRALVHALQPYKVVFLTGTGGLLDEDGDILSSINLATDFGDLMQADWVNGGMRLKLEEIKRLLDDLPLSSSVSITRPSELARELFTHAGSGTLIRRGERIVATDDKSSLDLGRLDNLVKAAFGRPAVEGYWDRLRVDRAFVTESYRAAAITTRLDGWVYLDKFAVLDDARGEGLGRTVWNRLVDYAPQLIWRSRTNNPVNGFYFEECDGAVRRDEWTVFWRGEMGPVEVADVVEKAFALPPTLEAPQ

[2] = target: T1, mmNAGS/K; assay: X-ray crystallography (native, […] A); assay type: binding; conditions: modeled in residual density at NAT domain of subunits A and Y; 100 mM glutamate before crystallization; pH 6.5
[3] = target: Maricaulis maris bifunctional N-acetylglutamate synthase/kinase (mmNAGS/K), wild type (Maricaulis maris MCS10); assay: crystal structure; trigonal form P3(1)21 of native mmNAGS/K, 4.3 A, two subunits per asymmetric unit, molecular replacement with the A-X dimer; 23% PEG400, 100 mM Bis-Tris pH 6.5, 1 mM 5-amino-2,4,6-triiodoisophthalic acid
[4] = target: Maricaulis maris bifunctional N-acetylglutamate synthase/kinase (mmNAGS/K), wild type (Maricaulis maris MCS10); assay: crystal structure; orthorhombic form P2(1)2(1)2(1) of mmNAGS/K, four subunits per asymmetric unit; protein incubated beforehand with 25 mM CoA and 100 mM glutamate; native: 25% PEG3350, 200 mM NaCl, 100 mM Bis-Tris pH 6.5; Se-Met mutant: 25% PEG3350, 200 mM sodium malonate pH 7.0
[5] = target: Maricaulis maris bifunctional N-acetylglutamate synthase/kinase (mmNAGS/K), wild type (Maricaulis maris MCS10); assay: cross-linking; 0.15 ug protein with 0.25 ug dimethyl suberimidate in 50 ul of 200 mM triethanolamine pH 8.25, three hours at 298 K; SDS-PAGE (NuPAGE 4-12% Bis-Tris), Coomassie blue
[6] = target: Se-Met substituted mmNAGS/K triple mutant (I106M, I294M, L376M) (Maricaulis maris MCS10); assay: crystal structure; orthorhombic form P2(1)2(1)2(1) of mmNAGS/K, four subunits per asymmetric unit; protein incubated beforehand with 25 mM CoA and 100 mM glutamate; native: 25% PEG3350, 200 mM NaCl, 100 mM Bis-Tris pH 6.5; Se-Met mutant: 25% PEG3350, 200 mM sodium malonate pH 7.0
[7] = target: Se-Met substituted xcNAGS/K (hexagonal crystal form) (Xanthomonas campestris); assay: crystal structure; hexagonal form P6(2)22 of Se-Met xcNAGS/K, one subunit per asymmetric unit, molecular replacement with mmNAGS/K; tetramer made by crystallographic symmetry
[8] = target: Xanthomonas campestris bifunctional N-acetylglutamate synthase/kinase (xcNAGS/K), recombinant (Xanthomonas campestris); assay: cross-linking; 0.15 ug protein with 0.25 ug dimethyl suberimidate in 50 ul of 200 mM triethanolamine pH 8.25, three hours at 298 K; SDS-PAGE (NuPAGE 4-12% Bis-Tris), Coomassie blue

Compound: N=C(N)NCCC[C@H](N)C(=O)O [L-arginine]
fold inhibition of NAGS activity at 1.0 mM [1]: 14 fold

Compound: N[C@@H](CCC(=O)O)C(=O)O [L-glutamate]
X-ray crystallography (native, 3.1 A) [2]: residual electron density in subunits A and Y at this site that can be modeled as L-glutamate

stoichiometry N [3]: 4
stoichiometry N [4]: 4
stoichiometry N [5]: 4
Compound: Maricaulis maris bifunctional N-acetylglutamate synthase/kinase (mmNAGS/K), wild type (enzyme)

stoichiometry N [6]: 4
Compound: Se-Met substituted mmNAGS/K triple mutant (I106M, I294M, L376M) (enzyme)

Compound: Se-Met substituted xcNAGS/K (hexagonal crystal form) (enzyme)
stoichiometry N [7]: 4

Compound: Xanthomonas campestris bifunctional N-acetylglutamate synthase/kinase (xcNAGS/K), recombinant (enzyme)
stoichiometry N [8]: 4
